Measurements as given in patent US20240301071A1.

B1: anti-SIRPA antibody 9C2 (antibody, V domains shown)
VH: EFQLQQSGAELVKPGASVKISCKASGYSLTGYNMNWVKQSRGKSLEWIGNINPHYGSSTYNQNFKDKATLTVDKSSSAAYMQFNSLTSEDSAVYYCAREGYDGVFDYWGQGTTLTVSS
VL: QIVLSQSPAILSASPGEKVTMTCRASSSVSYMHWYQQKPGSSPKPWIYVTSNLASGVPTRFSGSGSGTSYSLTISRVEAEDAATYYCQQWSSNPRTFGGGTKLEIK
B2: mouse anti-SIRPA antibody m3F9 (antibody, mouse IgG1, V domains shown)
VH: EVKLVESGGGLVKPGGSLKLSCAASGFTFSSYAMSWVRQTPEKRLEWVATISDYGGSYTYYPDSVKGRFTISRDNAKYTLYLQMSSLRSEDTALYYCARPPYDDYYGGFAYWGQGTLVTVSA
VL: DIVLTQSPASLAVSLGQRATISCRASKSVSSSGYSYMHWYQQKPGQPPKLLIYLASNLESGVPARFSGSGSGTDFTLNIHPVEEEDAATYYCQHNRELPCTFGGGTKLEIK
B3: deglycosylated m3F9 anti-SIRPA antibody (antibody, mouse IgG1, V domains shown)
VH: EVKLVESGGGLVKPGGSLKLSCAASGFTFSSYAMSWVRQTPEKRLEWVATISDYGGSYTYYPDSVKGRFTISRDNAKYTLYLQMSSLRSEDTALYYCARPPYDDYYGGFAYWGQGTLVTVSA
VL: DIVLTQSPASLAVSLGQRATISCRASKSVSSSGYSYMHWYQQKPGQPPKLLIYLASNLESGVPARFSGSGSGTDFTLNIHPVEEEDAATYYCQHNRELPCTFGGGTKLEIK
modifications: here or on the partner: Fc glycan on Asn297 removed enzymatically with EndoS
B4: chimeric anti-SIRPA antibody 3F9 huIgG1 (antibody, V domains shown)
VH: EVKLVESGGGLVKPGGSLKLSCAASGFTFSSYAMSWVRQTPEKRLEWVATISDYGGSYTYYPDSVKGRFTISRDNAKYTLYLQMSSLRSEDTALYYCARPPYDDYYGGFAYWGQGTLVTVSA
VL: DIVLTQSPASLAVSLGQRATISCRASKSVSSSGYSYMHWYQQKPGQPPKLLIYLASNLESGVPARFSGSGSGTDFTLNIHPVEEEDAATYYCQHNRELPCTFGGGTKLEIK
B5: anti-SIRPA antibody 18D5 (antibody, from another filing, V domains shown)
VH: QVQLQQPGAELVRPGSSVKLSCKASGYTFTSYWVHWVKQRPIQGLEWIGNIDPSDSDTHYNQKFKDKASLTVDKSSSTAYMQLSSLTFEDSAVYYCVRGGTGTMAWFAYWGQGTLVTVSA
VL: DVVMTQTPLSLPVSLGDQASISCRSSQSLVHSYGNTYLYWYLQKPGQSPKLLIYRVSNRFSGVPDRFSGSGSGTDFTLKISRVEAEDLGVYFCFQGTHVPYTFGSGTKLEIKR

What was measured:
[1] = molecular target: SIRPB1-His iso. 3 (human) (UniProt Q5TFQ8); assay: ELISA, plate coated with SIRP protein
SIRPB1-His iso. 3 (human), sequence (Q5TFQ8 30-371): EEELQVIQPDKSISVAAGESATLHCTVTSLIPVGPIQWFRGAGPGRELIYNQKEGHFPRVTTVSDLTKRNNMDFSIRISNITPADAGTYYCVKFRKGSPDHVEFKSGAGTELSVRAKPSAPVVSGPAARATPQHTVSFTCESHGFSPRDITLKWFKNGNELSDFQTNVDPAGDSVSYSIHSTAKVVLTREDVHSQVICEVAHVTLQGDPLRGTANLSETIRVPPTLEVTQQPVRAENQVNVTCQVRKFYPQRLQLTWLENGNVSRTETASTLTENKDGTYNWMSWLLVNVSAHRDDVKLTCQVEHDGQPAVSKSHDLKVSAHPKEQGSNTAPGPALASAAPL

[2] = molecular target: SIRPB1-Fc iso. 3 (human) (UniProt Q5TFQ8); assay: ELISA, plate coated with SIRP protein
SIRPB1-Fc iso. 3 (human), sequence (Q5TFQ8 30-371): as above

[3] = molecular target: SIRPA v2 (CAA71403.1) (human) (UniProt P78324); assay: ELISA, plate coated with SIRP protein
[4] = molecular target: huSIPRA v.1 CAA71403.1 (human) (UniProt P78324); assay: ELISA, plate coated with tagged SIRPA at 1 ug/mL
[5] = molecular target: T1, human SIRPA on human macrophages (primary monocyte-derived macrophages; U937 line) (human), P78324; assay: cell-based or functional assay
T1 sequence (P78324 31-504): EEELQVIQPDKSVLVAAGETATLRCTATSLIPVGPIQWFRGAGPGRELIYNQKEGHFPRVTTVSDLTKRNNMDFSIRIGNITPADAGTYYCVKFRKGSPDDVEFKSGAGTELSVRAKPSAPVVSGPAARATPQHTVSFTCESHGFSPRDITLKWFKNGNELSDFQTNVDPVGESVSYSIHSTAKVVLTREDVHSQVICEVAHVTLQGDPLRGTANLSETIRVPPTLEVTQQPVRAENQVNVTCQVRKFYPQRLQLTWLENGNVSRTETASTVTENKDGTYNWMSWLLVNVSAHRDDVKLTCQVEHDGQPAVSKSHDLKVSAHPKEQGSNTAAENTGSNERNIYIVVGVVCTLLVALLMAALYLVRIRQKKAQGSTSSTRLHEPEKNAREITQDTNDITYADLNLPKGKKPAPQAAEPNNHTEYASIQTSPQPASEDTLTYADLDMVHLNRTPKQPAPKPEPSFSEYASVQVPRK

[6] = molecular target: T1, human SIRPA on human macrophages …
[7] = molecular target: human SIRPA on human macrophages (primary monocyte-derived macrophages; U937 line) (human) (UniProt P78324); assay: cell-based or functional assay
human SIRPA on human macrophages (primary monocyte-derived macrophages; U937 line) (human), sequence (P78324 31-504): as above

Binder | EC50 [1] | EC50 [2] | EC50 [3] | Phagocytosis, fold increase over baseline activity [5] | SIRPA IC50 (nM), downregulation on U937 cells [5] | SIRPA IC50 (nM), downregulation on human primary macrophages [5] | SIRPA Max % DR, U937 cells [5] | SIRPA Max % DR, human primary macrophages [5] | SIRPA downregulation on primary human macrophages, Donor 413 (flow cytometry) [5] | SIRPA downregulation on primary human macrophages, Donor 414 (flow cytometry) [5] | further results
B1 | 0.425 nM | 0.382 nM | 0.358 nM | – | – | – | – | – | – | – | –
B2 | 0.435 nM | 0.319 nM | 0.353 nM | 1.51 fold | 0.105 nM | 0.00905 nM | 75% | 89% | 90% | 85% | EC50 [4]: 0.789 nM; IC50 (read off the curve), SIRPA downregulation on primary human macrophages, Dnr. 414 [6]: 0.04 nM
B3 | – | – | – | – | – | – | – | – | 70% | 75% | IC50 (read off the curve), SIRPA downregulation on primary human macrophages, Dnr. 413 [6]: 0.07 nM
B4 | – | – | – | 1.77 fold | 0.804 nM | 0.172 nM | 68% | 90% | – | – | –
B5 | – | – | – | – | – | – | – | – | – | – | EC50 (nM), phagocytosis of A375 cells by primary human macrophages [7]: 2.15 nM; Max, fold increase in phagocytosis over baseline activity [7]: 1.06 fold
